Measured values published in the supplement of paper PMC10567573.

B1: BTBD1 (parent)
chain: TSAEIELPDVEPAAFLALLRFLYS
B2: PLD5 (parent)
chain: WIVDKQHVYIGSAGLDWQSLGQMK

Variants of: B1
Test: protein stability index of a GFP-peptide fusion (GPS, HEK-293T) (PSI 1-6); higher = more stable
Details: c terminus: a fixed tail appended
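Note: lentivirally expressed fusions sorted by FACS into six bins by GFP to DsRed ratio, PSI derived from sequencing read proportions per bin multiplied by bin number.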

Protein stability index of substitutions, site by site:
T1: S 1.65, G 2.56, N 2.17, M 2.46, F 1.79, H 2.15, D 2.4, P 1.88, I 1.65, R 1.9, W 1.96, V 1.88, K 2.68, C 2.79, L 2.02, Q 1.97, A 2.22, Y 1.97, E 1.66
S2: A 1.72, E 1.65, F 2, C 2.05, D 1.61

Variants of: B2
Test: as above
Details: c terminus: a fixed tail appended

Protein stability index: each site, then its substitutions
Q18: M 3.07, R 1.47, I 2.62, D 2.42, G 2.4, A 1.95, N 2.1, C 3.36, V 2.73, S 2.16, T 2.07, P 1.85, E 1.6, K 1.61, Y 2.65, L 2.15, F 4.52, H 1.96
S19: R 1.83, L 3.25, M 1.7, V 1.69, E 2.06, F 2.34, W 2.5, Y 1.91, D 1.9, N 1.45, A 2.23, C 2.62, Q 1.9, H 1.81, P 1.29, K 2.22, T 1.96
M23: H 1.32, I 2.15, R 1.97, F 1.69, D 2.15, A 1.55, S 1.74, Q 2.09, G 1.9, L 2.12, K 1.69, N 1.9, P 1.85, V 1.29, T 2.06, E 2.11, Y 1.84, W 2.19, C 2.21
Q22: P 2.01, I 1.53, H 2.74, V 1.79, A 2.11, C 2.35, D 1.97, N 1.67, S 1.97, W 2.11, R 1.37, F 2.59, K 2.32, Y 2.35, T 2.97, E 1.59, L 3.9, G 1.8
W17: S 2.36, Q 2.09, R 1.9, L 1.64, H 2.35, V 2.24, F 1.91, K 1.72, C 1.73, G 2.17, I 1.63, M 1.38, N 2.17, A 1.97, D 1.94, E 2.1, P 1.64, Y 1.89, T 1.9
G11: S 2.22, L 2.88, R 2.02, V 2.02, M 2.25, F 2.11, P 2.12, K 1.26, Q 1.53, T 1.71, I 2.71, N 2.32, A 1.69, Y 3.22, C 2.07, W 2.27, D 1.46, E 2.82, H 1.92
Y9: E 2.13, P 2.48, F 3.1, W 1.75, V 1.93, D 1.91, L 1.64, Q 2.14, C 1.54, I 1.45, R 1.41, T 2.1, H 1.75, G 1.96, M 1.58, A 2.33, S 2.01, K 1.33, N 1.81
I10: G 1.64, S 1.73, Q 1.83, H 1.93, K 2.27, P 1.79, A 1.85, M 2.11, E 2.22, V 1.92, C 1.64, W 1.96, T 1.81, R 1.65, Y 1.73, N 2.16, L 2.41, F 2.26, D 2.41
L20: E 2.3, M 2.19, P 2.1, T 2.01, C 2.05, I 1.97, D 1.96, Y 1.97, S 1.85, F 1.61, R 2.13, K 2.17, A 1.65, V 2, W 1.85, Q 1.54, N 2, G 2.43, H 1.76
A13: Q 1.95, V 3.68, M 1.9, S 2.14, T 2.02, W 1.56, F 2.5, P 1.55, K 1.96, Y 1.98, L 2.44, H 1.45, R 3.3, I 3.29, C 2.08, D 1.33, E 1.72, G 2.05, N 2.11
G21: S 1.52, W 1.68, A 2.17, E 1.25, Q 1.75, K 1.54, R 1.86, H 2.52, T 1.86, P 1.67, L 2.88, M 1.89, N 2.41, D 2, Y 1.72, V 2.13, C 1.91
K24: L 2.68, A 2.37, E 2.51, P 2.17, R 1.51, D 2.02, W 2.97, F 2.05, S 3.37, M 2.58, T 2.23, H 2.79, C 3.61, V 2.15, I 1.79, N 2.36
G14: A 1.51, M 1.63, S 2.16, K 2.85, I 2.97, D 2.12, F 2.02, R 2.29, Y 1.79, Q 1.64, H 2.29, W 3.18, C 2.19, V 2.6, N 2.15, P 2.23, L 1.64, T 1.25, E 1.54
V8: W 2.43, G 1.35, D 1.5, F 1.92, P 2.06, H 1.54, Y 1.25, Q 2.11, R 4.04, N 2.01, S 1.69, T 1.81, E 2.01, L 1.93, I 2.31, M 2.45, K 1.9
D16: L 2.44, G 2.06, F 2.16, W 3.03, P 1.79, Q 1.16, H 1.44, N 2.33, K 1.68, S 2.26, C 2.39, T 3.02, A 3.8, E 2.32, I 1.94, M 2.83, Y 2.52, R 1.4
S12: W 1.92, Q 1.6, R 1.6, E 1.52, K 2.07, T 1.18, V 2.35, I 3.48, L 2.45, H 1.62, P 1.89, F 3.2, A 1.65, Y 1.73, N 1.92, G 1.72, M 1.31, D 1.57
L15: I 1.31, Y 1.67, A 1.8, Q 1.47, N 2.01, V 1.54, T 2, M 1.34, D 1.92, R 1.55, K 2.02, S 1.7, F 1.14, G 2.2, W 1.51, P 1.99, H 1.67, E 2.13, C 1.47
